The target in the experiment is S. cerevisiae Nup84-GFP (S. cerevisiae) (UniProt P52891). The experiment is described as follows: signal to noise ratio of Coomassie bands, Nup84-GFP affinity isolation on LaG-Dynabeads.

B1: LaG-8 (VHH)
VHH: QVQLVESGGGLVQHGGSLRLSCVTSGFTFDIHDMGWFRQAPGKERDIVARISKSGDITYYADSVKGRFIISRDNTKNTVYLQMNSLKPEDTAVYYCAATLRATITSFDEYVYRGQGTQVTVS
For the molecule B1, the Nup84-GFP S:N was found to be 0.1.

Values taken from patent US20170212130A1.
